Laboratory results published in ChEMBL document CHEMBL2074123, “Expression cloning of a rat liver Na(+)-independent organic anion transporter” (Proc Natl Acad Sci U S A, 1994).

Substrate: O=C1OC(c2ccc(O)c(S(=O)(=O)O)c2)(c2ccc(O)c(S(=O)(=O)O)c2)c2c(Br)c(Br)c(Br)c(Br)c21
Assay: TP_TRANSPORTER: uptake (no BSA) in Xenopus laevis oocytes
Assay type: functional, cell-based, Oocyte

B1: Solute carrier organic anion transporter family member 1A1 (Rattus norvegicus) (protein)
chain: MEETEKKIATQEGRLFSKMKVFLLSLTCACLTKSLSGVYMNSMLTQIERQFDISTSVAGLINGSFEIGNLFFIVFVSYFGTKLHRPVVIGIGCVIMGLGCLLMSLPHFFMGRYEYETTISPTGNLSSNSFLCMENRTQTLKPTQDPAECVKEMKSLMWICVMVGNIIRGIGETPIVPLGISYIEDFAKSENSPLYIGILEMGKVAGPIFGLLLGSYCAQIYVDIGSVNTDDLTITPSDTRWVGAWWIGFLVCAGVNILTSIPFFFLPKALPKKGQQENVAVTKDGKVEKYGGQAREENLGITKDFLTFMKRLFCNPIYMLFILTSVLQVNGFINKFTFLPKYLEQQYGKSTAEAIFLIGVYSLPPICLGYLIGGFIMKKFKITVKKAAYLAFCLSVFEYLLFLCHFMLTCDNAAVAGLTTSYKGVQHQLHVESKVLADCNTRCSCSTNTWDPVCGDNGVAYMSACLAGCKKFVGTGTNMVFQDCSCIQSLGNSSAVLGLCKKGPECANRLQYFLILTIIISFIYSLTAIPGYMVFLRCVKSEEKSLGVGLHTFCIRVFAGIPAPVYFGALIDRTCLHWGTLKCGQRGACRMYDINSFRHIYLGLPIALRGSSYLPAFFILILMRKFQFPGDIDSSATDHTEMMLGEKESEHTDVHGSPQVENDGELKTKL
In the case of B1, the Km is reported as 1.5 µM.
